Consider two molecules from patent US20190015361A1 (published 2019).

One assay has as its target T1, Aβ40 (t=0 days) (UniProt P05067 672-711).
T1 construct: domain: Aβ40; Dissolved in PBS and spotted at 20 µM on the SPRi chip immediately after solubilization; mainly low-MW oligomers by CE; also called Aβ40 low-MW oligomers; Aβ40 solubilized in PBS
Briefly: SPRi, Aβ forms spotted on chip, ovalbumin injected.

The target of a further assay is T2, Aβ42 (t=0 days) (human, UniProt P05067 672-713).
T2 construct: domain: Aβ42 (residues 1-42 of the Aβ peptide); HFIP / CH3CN-Na2CO3-NaOH preparation, diluted to 20 µM in phosphate buffer and spotted on the SPRi chip immediately; mainly low-MW oligomers by CE; also called Aβ42 low-MW oligomers
Briefly: SPRi, Aβ forms spotted on chip, ovalbumin injected.

Assay [1] concerns the target T3, Aβ42 (t=24 days) (human, UniProt P05067 672-713).
T3 construct: domain: Aβ42 (residues 1-42 of the Aβ peptide); enriched in high-MW oligomers by CE; also called Aβ42 high-MW oligomers
Briefly: SPRi, Aβ forms spotted on chip, ovalbumin injected.

Assay [2] concerns the target T3, Aβ42 (t=24 days). Briefly: SPRi, Aβ spotted on chip at 20 µM, LL-37 injected 1-100 µM, nonlinear fit of response at equilibrium.

T3 sequence (P05067 672-713 limits assumed): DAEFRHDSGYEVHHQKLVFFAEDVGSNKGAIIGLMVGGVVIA
T1 sequence (P05067 672-711 limits assumed): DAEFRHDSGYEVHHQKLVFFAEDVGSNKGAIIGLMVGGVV
T2 sequence (P05067 672-713 limits assumed): as the sequence (P05067 672-713 limits assumed) above

B1: Ovalbumin (Sigma-Aldrich, A5503) (other, UniProt P01012 2-386, looked up)
chain: GSIGAASMEFCFDVFKELKVHHANENIFYCPIAIMSALAMVYLGAKDSTRTQINKVVRFDKLPGFGDSIEAQCGTSVNVHSSLRDILNQITKPNDVYSFSLASRLYAEERYPILPEYLQCVKELYRGGLEPINFQTAADQARELINSWVESQTNGIIRNVLQPSSVDSQTAMVLVNAIVFKGLWEKAFKDEDTQAMPFRVTEQESKPVQMMYQIGLFRVASMASEKMKILELPFASGTMSMLVLLPDEVSGLEQLESIINFEKLTEWTSSNVMEERKIKVYLPRMKMEEKYNLTSVLMAMGITDVFSSSANLSGISSAESLKISQAVHAAHAEINEAGREVVGSAEAGVDAASVSEEFRADHPFLFCIKHIATNAVLFFGRCVSP
notes: Negative control analyte in SPRi, injected at 10 µM; also called non-correlated protein; negative control sample
For the molecule B1, the binding result with Aβ40 (t=0 days), with Aβ42 (t=0 days) and with Aβ42 (t=24 days) [1] was “no binding (tested: 10 µM)” throughout.

B2: human cathelicidin peptide LL-37 (peptide, UniProt P49913 134-170, looked up)
peptide: LLGDFFRKSKEKIGKEFKRIVQRIKDFLRNLVPRTES
notes: range 134-170; Synthetic peptide; from Innovagen for SPRi/TEM/CD, from AnaSpec for the cell culture work; also called cathelicidin LL-37
Consider B2, for which, in the assay with Aβ42 (t=24 days) [2], the Ka turned out to be 49200 M⁻¹ and the dissociation constant Kd stood at 20.3 µM.

By Kd is commonly meant the free concentration of one partner at which half of the binding sites on the other are occupied at equilibrium, for simple one-to-one binding. A low value points to a tighter complex.
